In patent US20030144208A1 (ZymoGenetics, published 2003):

Target: T1, BSA V (Sigma Co.) (bovine, UniProt P02769 25-607)
T1 construct: Negative control of the ELISA; also called BSA control; bovine serum albumin
Assay: ELISA on plated matrix protein, anti-FITC/biotin, streptavidin/HRP, chemiluminescence on film
Method: An ELISA (Enzyme-linked Immunosorbant Assay) was used to measure binding of zsig37 to various matrix proteins and complement C1q. The matrix proteins used were Bovine Collagen Type I (Becton Dickinson, Lincoln Park, N.J.) laminin, vitronectin, fibronectin, human collagen Types II, III, IV, V, VI (Chemicon International, Temecula, Calif.). BSA V (Sigma Co.) was used as a negative control. Just prior to use, the proteins were diluted in 2×PBS (Phosphate Buffered Saline, Sigma Co.) to 100 μg/ml and adjusted to pH 7.2 with 0.1 N NaOH. Each protein sample was quadruplicate plated (100 μl/well) into a 96 well plate. The plate was allowed to dry overnight in a laminar flow hood and washed 3 times with 400 μl of 5 mg/ml BSA in 1×PBS and blotted dry. Zsig37 was FITC labeled according to manufacturer's instruction (Pierce, Rockford, Ill.). Into each well was added 100 μl of 1.8 μg/ml zsig37-FITC in 5% BSA, PBS. The plates were incubated for 1.5 hours at room temperature then washed 3 time with 5% BSA, PBS. To each well was then added 100 μl of 1:400 mouse anti-FITC/Biotin (Sigma Co.). The plate was incubated 1.5 hours at room temperature and washed 3 times with 5% BSA, PBS. The plate was then incubated with 100 μl of 1:1000 streptavidin/HRP (Amersham, Piscataway, N.J.) for 1 hour and washed 3 times with 5% BSA, PBS. […]

T1 sequence (P02769 25-607 limits assumed): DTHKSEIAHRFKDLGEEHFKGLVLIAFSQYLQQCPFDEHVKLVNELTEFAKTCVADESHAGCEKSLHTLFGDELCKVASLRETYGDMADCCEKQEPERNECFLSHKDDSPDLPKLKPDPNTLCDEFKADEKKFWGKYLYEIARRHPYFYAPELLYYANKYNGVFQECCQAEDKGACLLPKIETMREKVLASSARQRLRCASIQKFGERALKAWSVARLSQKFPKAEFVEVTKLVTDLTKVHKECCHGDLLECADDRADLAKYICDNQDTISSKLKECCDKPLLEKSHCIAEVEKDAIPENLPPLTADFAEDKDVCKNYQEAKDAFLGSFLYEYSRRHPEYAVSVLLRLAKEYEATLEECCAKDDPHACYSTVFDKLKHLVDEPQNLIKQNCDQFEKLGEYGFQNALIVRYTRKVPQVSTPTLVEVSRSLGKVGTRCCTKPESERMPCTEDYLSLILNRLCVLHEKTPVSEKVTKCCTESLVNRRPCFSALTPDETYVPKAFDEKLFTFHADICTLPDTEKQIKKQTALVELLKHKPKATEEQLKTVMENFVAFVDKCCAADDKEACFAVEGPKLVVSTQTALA

B1: zsig37-FITC (ligand)
chain: LVLSRVPHVQGEQQEWEGTEELPSPPDHAERAEEQHEKYRPSQDQGLPASRCLRCCDPGTSMYPATAVPQINITILKGEKGDRGDRGLQGKYGKTGSAGARGHTGPKGQKGSMGAPGERCKSHYAAFSVGRKKPMHSNHYYQTVIFDTEFVNLYDHFNMFTGKFYCYVPGLYFFSLNVHTWNQKETYLHIMKNEEEVVILFAQVGDRSIMQSQSLMLELREQDQVWVRLYKGERENAIFSEELDTYITFSGYLVKHATEP
modifications: FITC label (sites not given)
notes: 22-281 is used here; also called FITC labeled zsig37; FITC tagged Zsig37 protein
  binding result: no binding (tested: 1.8 µg/ml zsig37-FITC)
